Patent US7060284

Target: HER-2 protein (human p185 HER-2 receptor) (human) (UniProt P04626)
Experiment: flow cytometry on SKBR3 cells, control sample

Substance: negative control sera (antibody)
- Mean Cell Fluorescence: 0.647
